Source: article PMC6920703, “Measuring glycolytic flux in single yeast cells with an orthogonal synthetic biosensor” (Molecular Systems Biology, 2019)
“Also recorded” adds a separate entry of the source.

Legend:
[1] = test system: CggR R250A (Bacillus subtilis); test: EMSA; details: 20 mM FBP; 35 nM DNA, 2 or 4 uM CggR, 10 mM Na3PO4 pH 7.8, 100 mM NaCl, 1 mM EDTA, 1 mM DTT, 5% glycerol, 1 ug salmon sperm DNA, 20 min room temperature; 5% native PAGE …
[2] = test system: CggR wild type (Bacillus subtilis); test: EMSA; details: 20 mM FBP; 35 nM DNA, 2 or 4 uM CggR, 10 mM Na3PO4 pH 7.8, 100 mM NaCl, 1 mM EDTA, 1 mM DTT, 5% glycerol, 1 ug salmon sperm DNA, 20 min room temperature; 5% native PAGE …
[3] = test system: DNA fragments containing the CggR operator sites; test: Electrophoresis mobility shift assay: CggR binding to DNA; details: for DNA binding affinity: desired/undesired sign / DNA binding affinity: Fig 5D; for DNA binding affinity: compared with wild type; for CggR binding to DNA in the absence of FBP: 0 mM FBP, Fig 5C; for DNA binding affinity: desired/undesired sign: key: +: A plus sign indicates desired characteristics achieved in the mutants; -: a minus sign indicates undesired effects of the mutations
Method: Fluorescently labeled DNA fragments were generated by hybridization of single‐stranded forward (labeled with Alexa Fluor 647 at the 5′ end) and reverse (unlabeled) oligonucleotides containing the CggR operator sites. The hybridization protocol and respective hybridization efficiency control were performed as described elsewhere (Bley Folly et al, 2018).
Hybridized labeled DNA fragments (final concentration 35 nM) were incubated 20 min at room temperature with 2 or 4 μM of the purified wild type or mutant CggR variants, in the presence of different concentrations of FBP (0; 0.5; 1; 2.5; 5; 10; and 20 mM) in a final volume of 25 μl in binding buffer (10 mM Na3PO4 pH 7.8, 100 mM NaCl, 1 mM EDTA, 1 mM DTT, 5% glycerol) including 1 μg of salmon sperm DNA. The sample mixtures were loaded in a 5% native polyacrylamide gel and run in native conditions in the dark with constant voltage (200V) at 4°C for 2 h.
Fluorescence was imaged using the Typhoon 9400 (Amersham Biosciences, UK) with the excitation set to 650 nm and the emission set to 655 nm. The background‐subtracted total intensities of the protein–DNA complex and the free‐DNA bands were assessed using ImageJ (Abràmoff et al, 2004), and bound DNA/total DNA was calculated by dividing the intensity of the protein–DNA complex band by the total DNA (i.e., the sum of the signal from the protein–DNA complex band plus the one from free DNA).

[4] = Thermal shift assay: CggR-FBP affinity constants (KD) from melting curves; format: binding; details: for KD ratio change (KD of the CggR mutant variant / KD of the wild type) / KD ratio change: desired/undesired sign: Fig 5D; for Obtained effects on affinity for FBP: classification based on thermal shift assays; for KD ratio change: desired/undesired sign: key: +: A plus sign indicates desired characteristics achieved in the mutants; -: a minus sign indicates undesired effects of the mutations
Method: The K D of the wild type and mutant CggR variants was calculated by fitting the T m data into a simple cooperative model using the GraphPad software.

[5] = Thermal shift assay: protein stability (melting temperature) of CggR variants; details: for Protein stability: desired/undesired sign / Protein stability: Fig 5D; for Protein stability: compared with wild type
Method: A sample mixture of 25 μl final volume containing 5 μl of 5× SYPRO Orange (Molecular Probes; Eugene, OR), 0.2 mg of the purified CggR, and different concentrations of the FBP metabolite (0; 0.01; 0.1; 0.5; 0.75; 1; 2.5; 10; 20; and 36 mM) was prepared on ice. Control experiments were performed to test the effect of the counter ion NaCl present in FBP salt solutions. Here, the NaCl was added instead of FBP to a final concentration threefold higher than the FBP itself (0; 0.03; 0.3; 1.5; 2.25; 3; 7.5; 30; 60; and 108 mM).
Sample mixtures were transferred into 96‐well PCR plates (Bio‐Rad, CA, USA), sealed with Optical‐Quality Sealing Tape (Bio‐Rad, CA, USA), and analyzed in a CFX96 Real‐Time System combined with C1000 Touch Thermal Cycler (Bio‐Rad, CA, USA). Analysis consisted of a single heating cycle from 20 to 99°C with increments of 0.5°C steps, followed by fluorescence intensity monitoring with a charge‐coupled device camera. The wavelengths for excitation and emission were 490 and 575 nm, respectively. The melting temperature (T m) was automatically calculated by the control software and corresponded to the local maximum of the first derivative of measured fluorescence versus temperature.

[6] = KD for FBP relative to wild type CggR (1 mM)

Molecule: CggR operator duplex (CggRO)
- binding signal (% of CggR remaining bound vs 0 mM FBP) [1]: 30
- binding signal (% of CggR remaining bound vs 0 mM FBP) [2]: 30

B1: T151S: CggR mutant, position 151 Thr to Ser, at the CggR-FBP-binding site (protein, UniProt O32253 1-340, looked up, variant T151S)
Central glycolytic genes …: MNQLIQAQKKLLPDLLLVMQKRFEILQYIRLTEPIGRRSLSASLGISERVLRGEVQFLKEQNLVDIKTNGMTLTEEGYELLSVLEDTMKDVLGLTLLEKTLKERLNLKDAIIVSGDSDQSPWVKKEMGRAAVACMKKRFSGKNIVAVTGGSTIEAVAEMMTPDSKNRELLFVPARGGLGEDVKNQANTICAHMAEKASGTYRLLFVPGQLSQGAYSSIIEEPSVKEVLNTIKSASMLVHGIGEAKTMAQRRNTPLEDLKKIDDNDAVTEAFGYYFNADGEVVHKVHSVGMQLDDIDAIPDIIAVAGGSSKAEAIEAYFKKPRNTVLVTDEGAAKKLLRDE
- Obtained effects on DNA binding affinity [3]: No effect
- DNA binding affinity: desired/undesired sign [3]: +
- DNA binding affinity [3]: Same range
- KD ratio change (KD of the CggR mutant variant / KD of the wild type) [4]: 0.90
- KD ratio change: desired/undesired sign [4]: -
- fold lower KD than wild type [4, 6]: 1.1 fold
- Obtained effects on affinity for FBP [4]: mild affinity increase
- Obtained effects on stability [5]: No effect
- Protein stability: desired/undesired sign [5]: +
- Protein stability [5]: Same range

B2: R175K: CggR mutant, position 175 Arg to Lys, at the CggR-FBP-binding site (protein, UniProt O32253 1-340, looked up, variant R175K)
Central glycolytic genes …: MNQLIQAQKKLLPDLLLVMQKRFEILQYIRLTEPIGRRSLSASLGISERVLRGEVQFLKEQNLVDIKTNGMTLTEEGYELLSVLEDTMKDVLGLTLLEKTLKERLNLKDAIIVSGDSDQSPWVKKEMGRAAVACMKKRFSGKNIVAVTGGTTIEAVAEMMTPDSKNRELLFVPAKGGLGEDVKNQANTICAHMAEKASGTYRLLFVPGQLSQGAYSSIIEEPSVKEVLNTIKSASMLVHGIGEAKTMAQRRNTPLEDLKKIDDNDAVTEAFGYYFNADGEVVHKVHSVGMQLDDIDAIPDIIAVAGGSSKAEAIEAYFKKPRNTVLVTDEGAAKKLLRDE
- Obtained effects on DNA binding affinity [3]: Disrupted affinity
- CggR binding to DNA in the absence of FBP [3]: did not bind to the DNA anymore
- DNA binding affinity: desired/undesired sign [3]: -
- DNA binding affinity [3]: No binding
- KD ratio change (KD of the CggR mutant variant / KD of the wild type) [4]: 0.98
- KD ratio change: desired/undesired sign [4]: -
- Obtained effects on affinity for FBP [4]: negligible affinity increase
- Obtained effects on stability [5]: No effect
- Protein stability: desired/undesired sign [5]: +
- Protein stability [5]: Same range

B3: T151V: CggR mutant, position 151 Thr to Val, at the CggR-FBP-binding site (protein, UniProt O32253 1-340, looked up, variant T151V)
Central glycolytic genes …: MNQLIQAQKKLLPDLLLVMQKRFEILQYIRLTEPIGRRSLSASLGISERVLRGEVQFLKEQNLVDIKTNGMTLTEEGYELLSVLEDTMKDVLGLTLLEKTLKERLNLKDAIIVSGDSDQSPWVKKEMGRAAVACMKKRFSGKNIVAVTGGVTIEAVAEMMTPDSKNRELLFVPARGGLGEDVKNQANTICAHMAEKASGTYRLLFVPGQLSQGAYSSIIEEPSVKEVLNTIKSASMLVHGIGEAKTMAQRRNTPLEDLKKIDDNDAVTEAFGYYFNADGEVVHKVHSVGMQLDDIDAIPDIIAVAGGSSKAEAIEAYFKKPRNTVLVTDEGAAKKLLRDE
- Obtained effects on DNA binding affinity [3]: Reduced affinity
- CggR binding to DNA in the absence of FBP [3]: only bound with lower affinity
- DNA binding affinity: desired/undesired sign [3]: -
- DNA binding affinity [3]: Reduced
- KD ratio change (KD of the CggR mutant variant / KD of the wild type) [4]: 2.59
- KD ratio change: desired/undesired sign [4]: +
- fold increase of KD over wild type [4, 6]: 2.6 fold
- Obtained effects on affinity for FBP [4]: strong affinity decrease
- Obtained effects on stability [5]: Strong decrease
- Protein stability [5]: Very low

B4: T152S: CggR mutant, position 152 Thr to Ser, at the CggR-FBP-binding site (protein, UniProt O32253 1-340, looked up, variant T152S)
Central glycolytic genes …: MNQLIQAQKKLLPDLLLVMQKRFEILQYIRLTEPIGRRSLSASLGISERVLRGEVQFLKEQNLVDIKTNGMTLTEEGYELLSVLEDTMKDVLGLTLLEKTLKERLNLKDAIIVSGDSDQSPWVKKEMGRAAVACMKKRFSGKNIVAVTGGTSIEAVAEMMTPDSKNRELLFVPARGGLGEDVKNQANTICAHMAEKASGTYRLLFVPGQLSQGAYSSIIEEPSVKEVLNTIKSASMLVHGIGEAKTMAQRRNTPLEDLKKIDDNDAVTEAFGYYFNADGEVVHKVHSVGMQLDDIDAIPDIIAVAGGSSKAEAIEAYFKKPRNTVLVTDEGAAKKLLRDE
- Obtained effects on DNA binding affinity [3]: No effect
- DNA binding affinity: desired/undesired sign [3]: +
- DNA binding affinity [3]: Same range
- KD ratio change (KD of the CggR mutant variant / KD of the wild type) [4]: 0.62
- KD ratio change: desired/undesired sign [4]: -
- fold lower KD than wild type [4, 6]: 1.6 fold
- Obtained effects on stability [5]: No effect
- Protein stability: desired/undesired sign [5]: +
- Protein stability [5]: Same range

B5: R250A: CggR mutant, position 250 Arg to Ala; selected for the glycolytic flux biosensor (protein, UniProt O32253 1-340, looked up, variant R250A)
Central glycolytic genes …: MNQLIQAQKKLLPDLLLVMQKRFEILQYIRLTEPIGRRSLSASLGISERVLRGEVQFLKEQNLVDIKTNGMTLTEEGYELLSVLEDTMKDVLGLTLLEKTLKERLNLKDAIIVSGDSDQSPWVKKEMGRAAVACMKKRFSGKNIVAVTGGTTIEAVAEMMTPDSKNRELLFVPARGGLGEDVKNQANTICAHMAEKASGTYRLLFVPGQLSQGAYSSIIEEPSVKEVLNTIKSASMLVHGIGEAKTMAQARNTPLEDLKKIDDNDAVTEAFGYYFNADGEVVHKVHSVGMQLDDIDAIPDIIAVAGGSSKAEAIEAYFKKPRNTVLVTDEGAAKKLLRDE
- Obtained effects on DNA binding affinity [3]: No effect
- CggR binding to DNA in the absence of FBP [3]: similar
- CggR remained bound to DNA at high FBP levels ([3]; 20 mM FBP relative to bound fraction at 0 mM FBP): around 30%
- DNA binding affinity: desired/undesired sign [3]: +
- DNA binding affinity [3]: Same range
- KD ratio change (KD of the CggR mutant variant / KD of the wild type) [4]: 1.52
- KD ratio change: desired/undesired sign [4]: +
- Obtained effects on affinity for FBP [4]: desired decrease in FBP affinity; also recorded: strong affinity decrease
- Obtained effects on stability [5]: No effect
- Protein stability [5]: Same range

B6: E269Q: CggR mutant, position 269 Glu to Gln, at the CggR-FBP-binding site (protein, UniProt O32253 1-340, looked up, variant E269Q)
Central glycolytic genes …: MNQLIQAQKKLLPDLLLVMQKRFEILQYIRLTEPIGRRSLSASLGISERVLRGEVQFLKEQNLVDIKTNGMTLTEEGYELLSVLEDTMKDVLGLTLLEKTLKERLNLKDAIIVSGDSDQSPWVKKEMGRAAVACMKKRFSGKNIVAVTGGTTIEAVAEMMTPDSKNRELLFVPARGGLGEDVKNQANTICAHMAEKASGTYRLLFVPGQLSQGAYSSIIEEPSVKEVLNTIKSASMLVHGIGEAKTMAQRRNTPLEDLKKIDDNDAVTQAFGYYFNADGEVVHKVHSVGMQLDDIDAIPDIIAVAGGSSKAEAIEAYFKKPRNTVLVTDEGAAKKLLRDE
- Obtained effects on DNA binding affinity [3]: Disrupted affinity
- CggR binding to DNA in the absence of FBP [3]: did not bind to the DNA anymore
- DNA binding affinity: desired/undesired sign [3]: -
- DNA binding affinity [3]: No binding
- KD ratio change (KD of the CggR mutant variant / KD of the wild type) [4]: 0.79
- KD ratio change: desired/undesired sign [4]: -
- Obtained effects on affinity for FBP [4]: mild affinity increase
- Obtained effects on stability [5]: Strong decrease
- Protein stability [5]: Very low
